Test results taken from patent publication US20240026407A1, “MODIFICATION OF SAPONINS” (GLAXOSMITHKLINE BIOLOGICALS SA, priority 2020, published 2024).

Tests used:
Format in all cases: biochemical, Quillaja saponaria
[1] = Experiment 6-1: screening of rhamnosidases for derhamnosylation of saponins in treated bark extract (2%), QS-17 2296 to QS-18 2150 (PAR %); details: TBE 2%, pH 7.5, 30 degC, 18 h; TIC peak area ratio percent of rhamnosylated starting saponin to derhamnosylated product, LCMS/MS; negative controls 4.876, 5.225
[2] = Experiment 6-1: screening of rhamnosidases for derhamnosylation of saponins in treated bark extract (2%), desglucosyl-QS-17 2134 to QS-21 1988 (PAR %); details: TBE 2%, pH 7.5, 30 degC, 18 h; TIC peak area ratio percent, LCMS/MS; negative controls 2.719, 2.158
[3] = Experiment 6-1: screening of rhamnosidases for derhamnosylation of saponins in treated bark extract (2%), QS-17 2310 to QS-18 2164 (PAR %); details: TBE 2%, pH 7.5, 30 degC, 18 h; TIC peak area ratio percent, LCMS/MS; negative controls 3.061, 2.429
[4] = Experiment 6-2: screening of rhamnosidases for derhamnosylation of saponins in treated bark extract (25%), relative % of Left, Middle and Right Peak by UV HPLC; details: TBE 25%, pH 7.4, 19.5 h; for Left Peak: mainly QS-17 family, negative control 24%; for Middle Peak: mainly QS-18 and desglucosyl-QS-17 family, negative control 50%; for Right Peak: mainly QS-21 family, negative control 26%
[5] = Experiment 6-3: screening of rhamnosidases for derhamnosylation of saponins in crude bark extract (80%), relative % of Left, Middle and Right Peak by UV HPLC; details: CBE 80%, pH 7.4, 30 degC, 19.5 h; for Left Peak: mainly QS-17 family, negative control 27%; for Middle Peak: mainly QS-18 and desglucosyl-QS-17 family, negative control 48%; for Right Peak: mainly QS-21 family, negative control 26%
Description: Selected variants were expressed and lysed as in the method of experiment 6-1.
Crude bark extract (CBE) solution was adjusted to pH 7.4 by addition of NaOH (2M). 20 uL clarified lysate was transferred into fresh 96 well PCR plates. 80 uL CBE solution (pH 7.4) was added to each well of lysate to a final concentration of 80%. Plates were incubated at 30 degC with shaking for 19.5 h.
Quenched with 100 uL MeCN+2% AcOH and shaken at room temperature for 10 mins prior to centrifugation (10 min, 4 degC) to remove particulates. Samples were analysed by UV HPLC using method of Experiment 4-4.
Three key peaks of interest are apparent using this chromatography: Left Peak (retention time approximately 2.30-2.35 min) comprising mainly QS-17 family components; Middle Peak (retention time approximately 2.37-2.42 min) comprising mainly QS-18 family components and desglucosyl-QS-17 family components; and Right Peak (retention time approximately 2.44-2.50 min) comprising mainly QS-21 family components. Peak identity was supported by MS/MS.
Enzyme mediated hydrolysis of the alpha-O-rhamnosylation at the C2 position of the arabinofuranose moiety of QS-17 family components leads to a decrease in Left Peak and an increase in Middle Peak due to formation of QS-18 family components. Enzyme mediated hydrolysis of the alpha-O-rhamnosylation at the C2 position of the arabinofuranose moiety of desglucosyl-QS-17 family components leads to a decrease in Middle Peak and an increase in Right Peak due to formation of QS-21 family components.
The relative percentage of each peak was determined. A decrease in Left Peak and a concomitant increase in Middle Peak and Right Peak is observed for enzymes active under these conditions.

[6] = Experiment 6-1: specificity of rhamnosidases towards other rhamnose residues (C3 saccharide rhamnose, C28 saccharide rhamnose); details: TBE 2%, pH 7.5, 30 degC, 18 h; LCMS/MS; negative controls 0.18, 0.17

| Molecule | QS-17 (PAR %) [1] | Peak75 (PAR %) [2] | Peak57 (PAR %) [3] | Left Peak [4] | Middle Peak [4] | Right Peak [4] | Left Peak [5] | Middle Peak [5] | Right Peak [5] | ratio PP/QS-21 [6] |
| --- | --- | --- | --- | --- | --- | --- | --- | --- | --- | --- |
| 1041 (protein, Frankia inefficax) MRAIRLRTEYLTEPLGLGITAPRLYWNADGGLRQTAYQVVARRGGETVWDTGKVASSRMTHVRYEGVPLGSRDRVDWSVVLWDEAGAAGPPAESWFELGLLDPADWTAEWITGDYTPEPDVRYPVDHFRRDFRVREPVLAARLYITAAGVYEAVLNGEPVSEARLGPGATDYRHRLHYQTFDVTSLLAADNVLEVRLADGWYRGSLGAFGATHVFGRETRLLAQLELTYPDGSTETVGSDERFRWSDDGPVRFADLQDGEVYDARLAPSYSGHARITTETMIPTAADNVPVTEHERFPARLLTTPSGARVLDFGQNLAGFVAFTVSGRAGQRLTLRLGEILDGAGEFTQRNFQLRKPVHEFGRDVEILLLTGQESEIKGELQPTPKQEVVFTASGGTDHYVTRFAVFGFRYALVETDLDIDPADFEAIAVYSAMEQTGTCVTSHEGVNRFLENTRWSMKGNFLDVPTDCPTRERLGWTGDAQVFFDTAAYLMDVGAFFRKWLRDVRDGQLADGKLSAVIPYNGTSMLYDTTGGSVGWADAVVLIPYRYWKRYGDESILRDCYDAMRRYAMFMITNAGPLDPEAAADNPHARYLYEKGVHLGDWLEAAEFRDPSPGRTPMPEEATAYLHYTMTHLAEIATVLGETADADLFAEYAQGAKAAYTHQFLRDGTLDTDRQAKLVRPLALGLADGDVKRRLEDRLVQAVKNRDFHVNTGFLSTPFVLPTLTAAGHPEIAYRMLDNEDAPSWLAEVKAGATTVWEDWEGKESRNHYSPGAVCQWLFDTVAGLRVTGENHFTIAPVPGGSLTSAQARYTSVYGTVASSWTRTGTDLHLTVTLPPNTTADVRLPNGTEHVVGPGTHEYTA | 0.507% | 0.000% | 0.000% | 15% | 55% | 30% | 25% | 48% | 27% | 0.16 |
| 989 (protein, listed as Rhodothermus marinus) MVLLFLGGAKEGAAQSNQALQVASLRTEYLVNPIGIEVRQPRLSWQLQSDRRDVRQVAYQIQVATSREALARGRDLVWDSGRVESDQSVFVPYGGPALQRRQRYYWRVRVWDNHGRSSAWSEPAFWEMGLLSPDEWRAQWITYNWEEDTSQPQPAPMLRRTFRVEGRVRRARLYITSLGLYEAHLNGRRVGDQLFTPGWTSYHHRLQYQTYDVTDLLRPGENALGVILGDGWYRGYLTWSVRRNVYGDRLALLAQLEITYEDGRTQVVTSDPDWKATTGPIRMSDIYMGEIYDARLEKEGWTEPGYDDSDWRGVRVLEHPKDILIAPIGPPVRRIQEIRPVAILYTPAGDTVVDMGQNMVGWVRLRVRGPAGTVVTLRHAEVLDKHGNFYTENLRRARQTDQYILKGEGEEVFEPHFTFHGFRYVAVSGYPGELTPEAITGIVIHSAFEPTGTWVSSDSLLNRLQLNIQWGMKGNFLDVPTDCPQRDERLGWTGDAQVFARTAMFNGLVGGFFTKWLGDVAADQSPEGAVPHVVPNVLPSFAGRFPGGATGWADAAVVIPWTMYQVYGDRRILEVQYPSMKAWVEYMRREAGDDLIWDTGFHFGDWLAFVPEENVRRAYPGATTGRDFLATAYFAYSTRLLAQAAEVIGKTDEARHYRQLYEAIREAFNREFVTPNGRVAQATQTAYTLAIQFDLLPEHLRAEAGRRLAEDVRAHNMHLTTGFLGTPQLLHALSNTGQLDVAYTLLRQTTYPSWLYQVKMGATTMWERWDSIKPDSTFQDPSMNSFNHYAYGSVGDWMYRVVAGIDTETPGYQRLRIAPQPGGGLKWVQARYHSLYGEVASSWELVDPQTFVLEVTIPPNTTATVRLPGAQLASVQEGRQPVQSAAGVHRAYQDGADVVVEVGSGTYRFTYSPSAELVRRIQTQPEVGQPVTMSF | 0.516% | 0.478% | 0.305% | 19% | 54% | 26% | 29% | 43% | 27% | 0.18 |
| 1053 (protein, listed as Solibacter usitatus) MKRAALLILLAGTLFGAASVRPQQLRCEYRVNPQGIDVKDPRLSWILAPVNPKGRGLTQSAYRILVSSSEAALRGNSGDLWDSGKIVSAESTQVAYQGKPLNSGTAAFWKVQVWDQDGQPSDWSAPAQWSMGLLRAEDWKGRWIGRDEAGVYKDSASDYQLLERARWIWDAGNAQAGAPVGNRFFRAAFTVPAGRKVTRALSVIGADNTADVYLNGEPIAVESKLPLPHAVDITHLVRPGENVIAVRATHSRADRPAGLIGGVRVEFASGDPVLLQTSNQWRTVAKPDPGWENPGFLDAAWQASKDLGAFGMAPWEGVGFLAQHRLPGRLLRKEFALEKKLRRATVYYSGLGLSELYLNGAKVGDHVLSPGLTDYDKHVLYVTFDVTRQLVQGKNAIGLMLGNGRYYAPRNDVPIKTRDFGYPKALVQLDLEFEDGSRANVVSDETWKYSADGPIRANNEYDGEEYDARREIAGWNKAGFDDAGWEAAKIVGASSGAVVAQMAEPLRVTETVKPLGVKKLRPGVFVFDMGQNLVGWCRLRVTGPKGTQVKLRHSETLKDDGSLYVDNLRSAKAEDIYTLKGVGAEVYEPRFTYHGFRYVEVTGFPGEPSASALDARVVHDDMERAGEFTSSSGLLNKIHHNMFWGIRGNYRSIPTDCPQRDERQGWLGDRGQVSRSESYMFDVAGFYSKWMTDLEDSQRPSGSIPDVSPNYWPLYNDDLTWPGTIIFIHGMLYDQYGDKRVLARGYPAMKKWMDYEKTFVKDGLISKDQYADWCVPPEDPKLIHSQDPRRVTDKTLIATSYYYQFLRTMSRYARILDRPTDAADFDKQADQVQDTFQRRFFKLESGMYDNGTQTSSILPLYFGMIPADFRPAVVQTLVRNIELQSNGHVGTGLVGAQWLMRTLSDAGYADLAYKIATQKTYPGWGYMVEQGATTIWELWNGNTADPAMNSGNHVMQIGDLAVWMYEYLAGIRTDPEKPGFRHAVIRPYPAGDLSFVKATHKTMYGPLASSWKREKGEFMLDVTVPANTTATVWVPAKDAASVTESGKKATDVKGVKFVRSENGSAIFEVSSGAYSFKSGI | 1.127% | 0.944% | 0.550% | 20% | 54% | 26% | 26% | 48% | 26% | 0.18 |
